# Results as given in patent publication US20070065468A1.
# B1: CHO-K1-expressed three-in-one chimeric mite allergen D1proenzD1LB5LD2 (protein)
# chain: RPSSIKTFEEYKKAFNKSYATFEDEEAARKNFLESVKYVQSNGGAINHLSDLSLDEFKNRFLMSAEAFEHLKTQFDLNAETNACSINGNAPAEIDLRQMRTVTPIRMQGGCGSCWAFSGVAATESAYLAYRNQSLDLAEQELVDCASQHGCHGDTIPRGIEYIQHNGVVQESYYRYVAREQSCRRPNAQRFGISNYCQIYPPNVNKIREALAQTHSAIAVIIGIKDLDAFRHYDGRTIIQRDNGYQPNYHAVNIVGYSNAQGVDYWIVRNSWDTNWGDNGYGYFAANIDLMMIEEYPYVVILGGGSGGGSGGQEHKPKKDDFRNEFDHLLIEQANHAIEKGEHQLLYLQHQLDELNENKSKELQEKIIRELDVVCAMIEGAQGALERELKRTDLNILERFNYEEAQTLSKILLKDLKETEQKVKDIQTQGGGSGGGSGGDQVDVKDCANHEIKKVLVPGCHGSEPCIIHRGKPFQLEAVFEANQNTKTAKIEIKASIDGLEVDVPGIDPNACHYMKCPLVKGQQYDIKYTWNVPKIAPKSENVVVTVKVMGDDGVLACAIATHAKIRD
# Target: mite allergen specific IgE of atopic subjects
# Test: cell-based or functional assay
binder,measurement,value
B1,fold decrease in IgE-mediated histamine release by human basophils,100 times
same,histamine release in basophils (whole blood of two atopic individuals),104 fold
same,"skin prick test, positive skin reactivity in 15 atopic subjects",26.6%
